Data: patent publication US12178848B2, “Methods and compositions for the treatment of exocrine pancreatic insufficiency” (Board of Regents, The University of Texas System, priority 2016, dated 2024)

B1: fibroblast growth factor 21 (protein, UniProt Q9NSA1 29-209, looked up)
Fibroblast growth factor 21: HPIPDSSPLLQFGGQVRQRYLYTDDAQQTEAHLEIREDGTVGGAADQSPESLLQLKALKPGVIQILGVKTSRFLCQRPDGALYGSLHFDPEACSFRELLLEDGYNVYQSEAHGLPLHLPGNKSPHRDPAPRGPARFLPLPGLPPALPEPPGILAPQPPDVGSSDPLSMVGPSQGRSPSYAS
notes: human recombinant FGF21 from Novo Nordisk, the native form of the human FGF21

Tests used:
AR42J cells = assay: Calcium imaging with fluo4-AM; format: cell-based; conditions: for block of CCK-mediated calcium release: inhibitor 30 min prior and during imaging: 1 μM PD173074, 10 μM L-364,718, 10 μM U73122, 100 μM 2-APB; for block of calcium release elicited by FGF21: 1 μg/ml FGF21, inhibitor 30 min prior and during imaging: 1 μM PD173074, 10 μM L-364,718, 10 μM U73122, 100 μM 2-APB; for intracellular calcium release (ΔF/F0): 1 μg/ml FGF21 or 100 pM CCK
Method: AR42J cells were pre-loaded with 1 μM of the calcium indicator fluo4-AM (Life Technologies) for 30 minutes at 37° C. Where indicated, 1 μM PD173074 (Sigma), 10 μM L-364,718 (Tocris Bioscience), 10 μM U73122 (Tocris Bioscience) or 100 μM 2-APB (Tocris Bioscience) were added during fluo4-AM preloading and to the imaging medium (DMEM without phenol red). Cells were imaged on a BD Pathway 855 bioimager with a 10× objective. Vehicle, FGF21 (1 μg/ml) and CCK (100 pM) were delivered 10 seconds after baseline fluorescence acquisition by an automated fluid delivery mechanism and imaged for a total time of 2 minutes. Calcium release was calculated using Image J as ΔF/F0, where ΔF is the raw fluorescent signal (F) from cells minus their background fluorescence (calculated from a region where no cells and fluorescent signal was expected), and F0 was the average of the first 6 frames before the compound was added. Sample size (n) corresponds to the number of cell clusters measured with each cell cluster containing 5-20 cells.

ERK1/2 = assay: Western blot of pancreatic phospho-ERK1/2; format: in vivo, mouse; conditions: for ERK1/2 phosphorylation in pancreas (FIG. 4F): WT mice, 1 mg/kg FGF21 or 5 μg/kg CCK (i.p.) for 15 min; for ERK1/2 phosphorylation in pancreas (FIG. 3B): mice, 1 mg/kg FGF21 or 5 mg/kg CCK for 15 min
Method: (§1) Pancreas was homogenized using Fastprep-24 lysing matrix bead tubes (MP Biomedicals) in 1×RIPA buffer (Cell Signaling Technology) supplemented with a cocktail of protease and phosphatase inhibitors (Roche). Protein lysate concentrations were measured using the DC Protein Assay (Biorad). Equal protein amounts were loaded and electrophoresed in a […] SDS-polyacrylamide gel (Biorad) and transferred to nitrocellulose membranes (Biorad). Membranes were blocked with 5% BSA in TBST for 1 hour. Probing of membranes with antibodies against FGF21, amylase and lipase (Santa Cruz); β-actin (Abcam); p-EIF2α, p-ERK1/2, and p-eIF4E-BP1 (Cell Signaling Technology) was performed overnight at 4° C. Membranes were then incubated with HRP-conjugated secondary antibodies (Cell Signaling Technology) against the primary antibody's host species for 1 hour. Membranes were developed using the Super Signal West Chemiluminescence Kit (Thermo) and signal was detected with an ImageQuant LAS4000 luminescent imager (General Electric). Quantification was done using Image J.

[1] = test system: pancreatic protein synthesis; assay: Pancreatic protein synthesis, 3H-phenylalanine flooding dose method; format: in vivo, mouse; conditions: mice, 1 mg/kg FGF21 or 5 mg/kg CCK for 2 hr
Method: Pancreatic protein synthesis was measured by the flooding dose method using ^3H-phenylalanine (Sans, et al., American journal of physiology 287, G667-675, 2004).

eIF4E-BP1 = assay: Western blot of pancreatic phospho-eIF4E-BP1; format: in vivo, mouse; conditions: mice, 1 mg/kg FGF21 or CCK for 15 min
Method: as §1

ad-lib fed WT mice = assay: FGF21 protein levels in pancreatic juice and plasma after CCK treatment; format: in vivo, mouse; conditions: 15 min CCK treatment vs basal
Text: (§2) Fgf21-knockout (KO) mice (Potthoff, et al., Proc Natl Acad Sci USA 106, 10853-10858, 2009), Fgf21-transgenic (Tg) mice (Inagaki, et al., Cell Metab 5, 415-425, 2007), KLB-T and WT littermates were maintained on a C57Bl/6J background. β-Klotho-KO and heterozygous littermates were kept on a mixed C57BL/6J; 129/Sv background (Ding, et al., Cell Metab 16, 387-393, 2012). All mice were housed in a pathogen-free facility and fed a standard chow diet (Harlan Teklad 2916). For fasting refeeding experiments, mice were fasted overnight and then refed for 2 hours with standard chow diet. Acute pancreatitis was induced by administration of seven hourly intraperitoneal injections of 50 μg/kg cerulein (Sigma), whereas mice in the control group were injected with saline. FGF21 in plasma was measured using a mouse FGF21 ELISA kit (Biovendor). Male mice were used for all experiments.
(§3) Mice were injected with vehicle (10 mM Na2HPO4, 2% [w/v] glycerol, pH 7.6) or 1 mg/kg human recombinant FGF21 (Novo Nordisk) subcutaneously twice per day for two consecutive days. Mice were fasted for 6 hours, and pancreatic juice was collected for 15 minutes. The final injection of vehicle or FGF21 was given 1 hour prior to pancreatic juice collection.

PLCβ3 = assay: Western blot of pancreatic phospho-PLCβ; format: in vivo, mouse; conditions: WT mice, 5 μg/kg CCK (i.p.) for 15 min
Method: as §1
(§4) Activation of the CCK-A receptor leads to the phosphorylation of the b isoform of PLC, calcium release, and subsequent secretion. In contrast, FGF receptors activate the γ isoform. To explore whether FGF21 and CCK have different activation profiles for the PLC isoforms, we treated WT mice with vehicle, FGF21, or CCK for 15 min. […]

[2] = test system: Klb^fl/fl and Klb^Cela1−/− mice; assay: Pancreatic juice collection: flow rate and amylase levels; format: in vivo, mouse; conditions: 1 mg/kg FGF21 for 2 consecutive days
Method: as §3
To explore whether FGF21 also acts directly on pancreatic acinar cells in vivo, we generated an inducible acinar cell-specific β-Klotho (Klb) knockdown mouse model in which Cre recombinase expression was under the control of a modified estrogen receptor and the elastase promoter. Efficient knockdown of Klb expression following tamoxifen administration was confirmed in floxed Klb mice carrying the Cre allele (Klb^Cela1−/−). There was no change in plasma FGF21 concentrations in Klb^Cela1−/− mice under fasted conditions. Similar to the Fgf21 KO mice, the Klb^Cela1−/− mice had increased zymogen granule density and pancreatic digestive enzyme concentrations. To test whether FGF21 acts directly on pancreatic acinar cells to stimulate secretion, Klb^fl/fl and Klb^Cela1−/− mice were treated with either vehicle or FGF21 and pancreatic juice collected for 15 min. […] Thus, the basis for the remaining effect of FGF21 on pancreatic juice flow rate requires further investigation.

secretin = assay: Blood concentration of secretin; format: in vivo, mouse; conditions: mice treated with FGF21
Fgf21-KO mice [3] = assay: Western blot of pancreatic amylase and lipase levels; format: in vivo, mouse; conditions: 1 mg/kg recombinant FGF21 twice per day for two consecutive days
Method: as §3
as §1, with “Membranes were then incubated with HRP-conjugated secondary antibodies (Cell Signaling Technology) against the primary antibody's host species for 1 hour.” left out

[4] = test system: Female Swiss Webster mice; assay: ERCP-induced pancreatitis model, histological grading of pancreas; format: in vivo, mouse; conditions: 1 mg/kg FGF21, 4 subcutaneous injections
Method: To evaluate if FGF21 confers a beneficial effect against ERCP-induced pancreatitis, a preclinical study was performed in an established rodent model of ERCP that develops pancreatitis 24 hours after ERCP. Female Swiss Webster mice were treated with either 4 subcutaneous injections of vehicle or 1 mg/kg FGF21 in the following way: 1 injection the day prior to ERCP, 2 injections the day of the ERCP procedure, and 1 injection the day following ERCP. Mice were subjected to the ERCP procedure, which consisted of a high-pressure infusion of a radiocontrast agent through the pancreatic duct.

[5] = test system: Fgf21-transgenic (Tg) mice; assay: Cerulein-induced pancreatitis (CIP), ER stress markers; format: in vivo, mouse; conditions: chronic FGF21 via liver-specific transgene, supraphysiologic circulating levels; cerulein 50 μg/kg, seven hourly i.p. injections
Text: as §2, with “experiments. […]” for “experiments.”
Pancreas was homogenized using Fastprep-24 lysing matrix bead tubes (MP Biomedicals) in 1×RIPA buffer (Cell Signaling Technology) supplemented with a cocktail of protease and phosphatase inhibitors (Roche). Protein lysate concentrations were measured using the DC Protein Assay (Biorad). […] Membranes were developed using the Super Signal West Chemiluminescence Kit (Thermo) and signal was detected with an ImageQuant LAS4000 luminescent imager (General Electric). Quantification was done using Image J.

PLCγ1 = assay: Western blot of pancreatic phospho-PLCγ; format: in vivo, mouse; conditions: WT mice, 1 mg/kg FGF21 for 15 min
Method: as §1, §4

[6] = test system: mouse primary acinar cells; assay: Cell secretion assay, amylase secretion; format: cell-based; conditions: 1 μg/mL FGF21 for 30 min
Method: Primary acinar cells were prepared by modification of a published protocol (Williams, et al., The American journal of physiology 235, 517-524, 1978). Briefly, mice were sacrificed by decapitation followed by dissection and washing of the pancreas in 1×PBS. Pancreas digestion medium (0.75 mg/ml collagenase type XI-S [Sigma], 0.1 mg/ml soybean trypsin inhibitor [Sigma], 1% BSA in DMEM) was injected into the pancreatic parenchyma with a 30 g syringe. Pancreas was then incubated in digestion medium for 20-40 minutes with constant mixing using serological pipets of decreasing diameters. Cells were filtered through a 100 μm strainer and washed 3 times with incubation medium (0.1 mg/ml soybean trypsin inhibitor, 1% BSA in DMEM) via centrifugation at 50×g for 3 minutes per wash. Cells were plated and allowed to recover for 2 hours in incubation medium at 37° C.
Primary acinar and AR42J cells were treated with vehicle, FGF21 (1 μg/ml for both primary acinar cells and AR42J) or CCK (10 pM for primary acinar cells and 100 pM for AR42J cells [Phoenix Pharmaceuticals]) for 30 minutes at 37° C. Amylase levels in both the cell medium and cells were analyzed using an Amylase Assay Kit (Abcam).

Fgf21-KO mice [7] = assay: H&E staining of pancreas, eosinophilic area fraction; format: in vivo, mouse; conditions: 1 mg/kg recombinant FGF21 twice per day for two consecutive days
Method: as §3
Mouse pancreas was fixed in 10% neutral buffered formalin overnight and then paraffin embedded, sectioned and hematoxylin and eosin stained. For fresh frozen histology, the pancreas was quickly dissected, snap frozen in cooled isopentane and sectioned at 14-16 μm. The sections were then fixed in 10% neutral buffered formalin for 15 min at 4° C., washed 3 times in 1×PBS and mounted with Vectashield mounting medium with DAPI (Vector Laboratories). Images were acquired with a Zeiss Axioscan Z1 slide scanner at a 20× magnification. Quantification of the eosinophilic area was performed using Image J.

[8] = Klb^Cela1−/− mice, juice collected for 15 min

Row | Molecule | block of CCK-mediated calcium release (AR42J cells; 100 pM CCK) | block of calcium release elicited by FGF21 (AR42J cells) | ERK1/2 phosphorylation in pancreas (FIG. 4F) (ERK1/2) | ERK1/2 phosphorylation in pancreas (FIG. 3B) (ERK1/2) | intracellular calcium release (ΔF/F0) (AR42J cells) | 3H-phenylalanine incorporation into pancreatic protein (pancreatic protein synthesis) [1] | phosphorylation of eIF4E-BP1 in pancreas (eIF4E-BP1) | also measured
1 | NCCOB(c1ccccc1)c1ccccc1 [2-APB] | blocked | blocked |  |  |  |  |  | 
2 | CN1C(=O)[C@@H](NC(=O)c2cc3ccccc3[nH]2)N=C(c2ccccc2)c2ccccc21 [L-364,718] | blocked | not |  |  |  |  |  | 
3 | CCN(CC)CCCCNc1ncc2cc(-c3cc(OC)cc(OC)c3)c(NC(=O)NC(C)(C)C)nc2n1 [PD173074] | not | blocked |  |  |  |  |  | 
4 | COc1ccc2c(c1)CC[C@@H]1[C@@H]2CC[C@]2(C)[C@@H](NCCCCCCN3C(=O)C=CC3=O)CC[C@@H]12 [U73122] | blocked | blocked |  |  |  |  |  | 
5 | cholecystokinin [CCK] |  |  | induced | induced | triggered intracellular calcium release | significantly increased | increased | time to peak calcium levels after treatment (AR42J cells; 100 pM CCK): ≤ 30 s; change of FGF21 in the blood (ad-lib fed WT mice): without any change; increase in the concentration of FGF21 in the pancreatic juice (ad-lib fed WT mice): 3 fold; phosphorylation of PLCβ in pancreas (PLCβ3): induced
6 | B1 |  |  | induced | induced | triggered intracellular calcium release | no significant effect | no effect | effect on digestive enzyme secretion (amylase in pancreatic juice) in Klb^Cela1−/− mice [2, 8]: absent; effect on pancreatic juice flow rate in Klb^Cela1−/− mice [2, 8]: significantly reduced but not eliminated; digestive enzyme secretion into pancreatic juice ([2]; control mice): stimulate; pancreatic juice flow ([2]; control mice): stimulate; blood concentrations of secretin (secretin): did not increase; pancreatic digestive enzyme levels (amylase, lipase), immunoblot (Fgf21-KO mice [3]): reduction; edema after ERCP, histological grading [4]: decreased; inflammation after ERCP, histological grading [4]: decreased; ER stress parameters (p-eIF2α, Atf4, Chop, Bip mRNA) in response to CIP [5]: suppressed; time to peak calcium levels after treatment (AR42J cells; 1 μg/ml FGF21): 60 to 120 s; phosphorylation of PLCγ in pancreas (PLCγ1): induced; amylase (digestive enzyme) secretion from acinar cells [6]: Induce Pancreatic Digestive Enzyme Secretion; pancreatic eosinophilic area fraction (Fgf21-KO mice [7]): decreased the pancreatic eosinophilic area fraction in Fgf21-KO mice to wild type (WT) levels
